Assay results reported in patent US20210380703A1.

B1: 374_B02 (antibody, V domains shown)
VH: EVQLLESGGGLVQPGGSLRLSCAASGFTFDSYSMHWVRQAPGKGLEWVAGINYNSGYTSYADSVKGRFTISRDNSKNTLYLQMNSLRAEDTAVYYCARAANWHDTHLDYWGQGTLVTVSS
VL: DIQMTQSPSSLSASVGDRVTITCRASQSIISYLNWYQQKPGKAPKLLIYAATSRASGVPSRFSGSGSGTDFTLTISSLQPEDFATYYCQQSYDSPLTFGGGTKVEIK
B2: 365_D08 (antibody, V domains shown)
VH: EVQLLESGGGLVQPGGSLRLSCAASGFTFDSYSMHWVRQAPGKGLEWVSSINYNGGYTSYADSVKGRFTISRDNSKNTLYLQMNSLRAEDTAVYYCARAATWHDTHLDYWGQGTLVTVSS
VL: DIQMTQSPSSLSASVGDRVTITCRASQSIITYVNWYQQKPGKAPKLLIYAATSRASGVPSRFSGSGSGTDFTLTISSLQPEDFATYYCQQSYDTPLTFGGGTKVEIK
B3: 374_F03 (antibody, V domains shown)
VH: EVQLLESGGGLVQPGGSLRLSCAASGFTFSSYGMNWVRQAPGKGLEWVASINYNGGYTSYADSVKGRFTISRDNSKNTLYLQMNSLRAEDTAVYYCARAANWHDTHLDYWGQGTLVTVSS
VL: DIQMTQSPSSLSASVGDRVTITCRASQSIISYVNWYQQKPGKAPKLVIYAATSRASGVPSRFSGSGSGTDFTLTISSLQPEDFATYYCQQSYDTPLTFGGGTKVEIK
B4: 366_C05 (antibody, V domains shown)
VH: EVQLLESGGGLVQPGGSLRLSCAASGFTFDDYGMHWVRQAPGKGLEWVSSINYNGGYTGYADSVKGRFTISRDNSKNTLYLQMNSLRAEDTAVYYCARAATWHDTHLDYWGQGTLVTVSS
VL: DIQMTQSPSSLSASVGDRVTITCRASQSIISYLNWYQQKPGKAPKLVIYAATSRASGVPSRFSGSGSGTDFTLTISSLQPEDFATYYCQQSYDSPLTFGGGTKVEIK
B5: 367_C12 (antibody, V domains shown)
VH: EVQLLESGGGLVQPGGSLRLSCAASGFTFSSYGMHWVRQAPGKGLEWVSGINYNGGYTSYADSVKGRFTISRDNSKNTLYLQMNSLRAEDTAVYYCARAATWHDTHLDYWGQGTLVTVSS
VL: DIQMTQSPSSLSASVGDRVTITCRASQSILSYVNWYQQKPGKAPKLLIYATTSRHSGVPSRFSGSGSGTDFTLTISSLQPEDFATYYCQQSYESPLTFGGGTKVEIK
B6: 365_D03 (antibody, V domains shown)
VH: EVQLLESGGGLVQPGGSLRLSCAASGFTFDDYSMHWVRQAPGKGLEWVASINYNGGYKSYADSVKGRFTISRDNSKNTLYLQMNSLRAEDTAVYYCARAATWHDTHLDYWGQGTLVTVSS
VL: DIQMTQSPSSLSASVGDRVTITCRASQSIVSYLNWYQQKPGKAPKLVIYAATSRASGVPSRFSGSGSGTDFTLTISSLQPEDFATYYCQQSYDSPLTFGGGTKVEIK
B7: 375_A04 (antibody, V domains shown)
VH: EVQLLESGGGLVQPGGSLRLSCAASGFTFDSYGMNWVRQAPGKGLEWVAGINYNGGYKSYADSVKGRFTISRDNSKNTLYLQMNSLRAEDTAVYYCARAANWHDTALDYWGQGTLVTVSS
VL: DIQMTQSPSSLSASVGDRVTITCRASQSILTYLNWYQQKPGKAPKLVIYYVNNLPSGVPSRFSGSGSGTDFTLTISSLQPEDFATYYCQQSYNSPLTFGGGTKVEIK
B8: 366_E07 (antibody, V domains shown)
VH: EVQLLESGGGLVQPGGSLRLSCAASGFTFDSYGMHWVRQAPGKGLEWVAGINYNGGYTSYADSVKGRFTISRDNSKNTLYLQMNSLRAEDTAVYYCARAATWHDTALDYWGQGTLVTVSS
VL: DIQMTQSPSSLSASVGDRVTITCRASQSILTYLNWYQQKPGKAPKLVIYAATSRHSGVPSRFSGSGSGTDFTLTISSLQPEDFATYYCQQSDNSPLTFGGGTKVEIK
B9: 375_H01 (antibody, V domains shown)
VH: EVQLLESGGGLVQPGGSLRLSCAASGFTFSDYSMNWVRQAPGKGLEWVAGINYNSGYTSYADSVKGRFTISRDNSKNTLYLQMNSLRAEDTAVYYCARAANWHDTHLDYWGQGTLVTVSS
VL: DIQMTQSPSSLSASVGDRVTITCRASQSILTYLNWYQQKPGKAPKLLIYAATSRHSGVPSRFSGSGSGTDFTLTISSLQPEDFATYYCQQSYSNPLTFGGGTKVEIK
B10: 365_F10 (antibody, V domains shown)
VH: EVQLLESGGGLVQPGGSLRLSCAASGFTFDDYGMHWVRQAPGKGLEWVSGINYNGGYTSYADSVKGRFTISRDNSKNTLYLQMNSLRAEDTAVYYCARAATWHDTHLDYWGQGTLVTVSS
VL: DIQMTQSPSSLSASVGDRVTITCRASQSIVTYVNWYQQKPGKAPKLLIYAATSRASGVPSRFSGSGSGTDFTLTISSLQPEDFATYYCQQSYELPLTFGGGTKVEIK
B11: 376_G02 (antibody, V domains shown)
VH: EVQLLESGGGLVQPGGSLRLSCAASGFTFSDYGMNWVRQAPGKGLEWVSGINYNGGYTSYADSVKGRFTISRDNSKNTLYLQMNSLRAEDTAVYYCARAANWHDTALDYWGQGTLVTVSS
VL: DIQMTQSPSSLSASVGDRVTITCRASQSISRYLNWYQQKPGKAPKLVIYAATSLASGVPSRFSGSGSGTDFTLTISSLQPEDFATYYCQQSYDNPLTFGGGTKVEIK
B12: 365_C06 (antibody, V domains shown)
VH: EVQLLESGGGLVQPGGSLRLSCAASGFTFSDYGMHWVRQAPGKGLEWVSGINYNGGYTSYADSVKGRFTISRDNSKNTLYLQMNSLRAEDTAVYYCARAANWHDTALDYWGQGTLVTVSS
VL: DIQMTQSPSSLSASVGDRVTITCRASQSISTYVNWYQQKPGKAPKLLIYAVTSLASGVPSRFSGSGSGTDFTLTISSLQPEDFATYYCQQSYDNPLTFGGGTKVEIK
B13: 366_B09 (antibody, V domains shown)
VH: EVQLLESGGGLVQPGGSLRLSCAASGFTFSDYGMHWVRQAPGKGLEWVSSINYNSGYKSYADSVKGRFTISRDNSKNTLYLQMNSLRAEDTAVYYCARAATWHDTHLDYWGQGTLVTVSS
VL: DIQMTQSPSSLSASVGDRVTITCRASQSILTYLNWYQQKPGKAPKLVIYAATSRHSGVPSRFSGSGSGTDFTLTISSLQPEDFATYYCQQSYDSPLTFGGGTKVEIK
B14: 369_D06 (antibody, V domains shown)
VH: EVQLLESGGGLVQPGGSLRLSCAASGFTFDSYSMNWVRQAPGKGLEWVSGINYNGGYTGYADSVKGRFTISRDNSKNTLYLQMNSLRAEDTAVYYCARSATWHDTHLDYWGQGTLVTVSS
VL: DIQMTQSPSSLSASVGDRVTITCRASQSILTYLNWYQQKPGKAPKLLIYAATSRASGVPSRFSGSGSGTDFTLTISSLQPEDFATYYCQQSYETPLTFGGGTKVEIK
B15: 375_F12 (antibody, V domains shown)
VH: EVQLLESGGGLVQPGGSLRLSCAASGFTFDSYGMHWVRQAPGKGLEWVASINYNGGYTSYADSVKGRFTISRDNSKNTLYLQMNSLRAEDTAVYYCARAANWHDTALDYWGQGTLVTVSS
VL: DIQMTQSPSSLSASVGDRVTITCRASQSILTYLNWYQQKPGKAPKLVIYAATSRASGVPSRFSGSGSGTDFTLTISSLQPEDFATYYCQQSDELPLTFGGGTKVEIK
B16: 367_C06 (antibody, V domains shown)
VH: EVQLLESGGGLVQPGGSLRLSCAASGFTFDSYSMHWVRQAPGKGLEWVASINYNGGYKSYADSVKGRFTISRDNSKNTLYLQMNSLRAEDTAVYYCARAATWHDTHLDYWGQGTLVTVSS
VL: DIQMTQSPSSLSASVGDRVTITCRASQSILTYLNWYQQKPGKAPKLVIYAATSLHSGVPSRFSGSGSGTDFTLTISSLQPEDFATYYCQQSYDTPLTFGGGTKVEIK
B17: 365_B12 (antibody, V domains shown)
VH: EVQLLESGGGLVQPGGSLRLSCAASGFTFSDYGMHWVRQAPGKGLEWVSGINYNGGYTSYADSVKGRFTISRDNSKNTLYLQMNSLRAEDTAVYYCARAATWHDTHLDYWGQGTLVTVSS
VL: DIQMTQSPSSLSASVGDRVTITCRASQSISTYVNWYQQKPGKAPKLLIYAVTSLHSGVPSRFSGSGSGTDFTLTISSLQPEDFATYYCQQSYDNPLTFGGGTKVEIK
B18: 375_A11 (antibody, V domains shown)
VH: EVQLLESGGGLVQPGGSLRLSCAASGFTFSDYGMHWVRQAPGKGLEWVSSINYNSGYKSYADSVKGRFTISRDNSKNTLYLQMNSLRAEDTAVYYCARAANWHDTALDYWGQGTLVTVSS
VL: DIQMTQSPSSLSASVGDRVTITCRASQSIVSYLNWYQQKPGKAPKLLIYYVTNLASGVPSRFSGSGSGTDFTLTISSLQPEDFATYYCQQSYDNPLTFGGGTKVEIK
B19: 366_H01 (antibody, V domains shown)
VH: EVQLLESGGGLVQPGGSLRLSCAASGFTFDDYSMHWVRQAPGKGLEWVANINYNGGYTSYADSVKGRFTISRDNSKNTLYLQMNSLRAEDTAVYYCARAATWHDTHLDYWGQGTLVTVSS
VL: DIQMTQSPSSLSASVGDRVTITCRASQSILTYLNWYQQKPGKAPKLVIYATTSRHSGVPSRFSGSGSGTDFTLTISSLQPEDFATYYCQQSYESPLTFGGGTKVEIK
B20: 365_D04 (antibody, V domains shown)
VH: EVQLLESGGGLVQPGGSLRLSCAASGFTFSDYGMHWVRQAPGKGLEWVAGINYNGGYKSYADSVKGRFTISRDNSKNTLYLQMNSLRAEDTAVYYCARAANWHDTALDYWGQGTLVTVSS
VL: DIQMTQSPSSLSASVGDRVTITCRASQSISSYLNWYQQKPGKAPKLVIYAVTSRASGVPSRFSGSGSGTDFTLTISSLQPEDFATYYCQQSYDLPLTFGGGTKVEIK
B21: 366_G02 (antibody, V domains shown)
VH: EVQLLESGGGLVQPGGSLRLSCAASGFTFDSYGMHWVRQAPGKGLEWVSSINYNGGYTSYADSVKGRFTISRDNSKNTLYLQMNSLRAEDTAVYYCARAATWHDTHLDYWGQGTLVTVSS
VL: DIQMTQSPSSLSASVGDRVTITCRASQSILTYLNWYQQKPGKAPKLLIYAATSRHSGVPSRFSGSGSGTDFTLTISSLQPEDFATYYCQQSDDNPLTFGGGTKVEIK
B22: 365_G06 (antibody, V domains shown)
VH: EVQLLESGGGLVQPGGSLRLSCAASGFTFDSYGMHWVRQAPGKGLEWVAGINYNGGYTSYADSVKGRFTISRDNSKNTLYLQMNSLRAEDTAVYYCARAATWHDTHLDYWGQGTLVTVSS
VL: DIQMTQSPSSLSASVGDRVTITCRASQSILSYLNWYQQKPGKAPKLLIYAATSLASGVPSRFSGSGSGTDFTLTISSLQPEDFATYYCQQSDSTPLTFGGGTKVEIK

Molecular target: human Fc (human)
Assay: ELISA, negative control

In order of rising optical density:
1. B15  0.175 OD
2. B18  0.176 OD
3. B7  0.177 OD
4. B1  0.179 OD
5. B3  0.185 OD
6. B9  0.216 OD
7. B8  0.262 OD
8. B4  0.269 OD
9. B13  0.283 OD
10. B11  0.285 OD
11. B16  0.29 OD
12. B17  0.307 OD
13. B5  0.31 OD
14. B20  0.316 OD
15. B12  0.318 OD
16. B22  0.32 OD
17. B14  0.324 OD
18. B6  0.346 OD
19. B2  0.35 OD
20. B21  0.357 OD
21. B19  0.384 OD
22. B10  0.386 OD
